Data as given in US10829799 (UNIVERSITY COURT OF THE UNIVERSITY OF DUNDEE, dated 2020).
Each block holds one binder with its values, some of them ahead of it.

What was measured:
[1] = molecular target: T1, UBA7 (ISG15 E1; His-tagged human UBA7) (human, UniProt P41226 1-1012); test: covalent activity-based labelling, SDS-PAGE (FIG. 3E)
T1 construct: not shown: N-terminal 6xHis tag of the pFastBacHTB vector
T1 sequence (looked up): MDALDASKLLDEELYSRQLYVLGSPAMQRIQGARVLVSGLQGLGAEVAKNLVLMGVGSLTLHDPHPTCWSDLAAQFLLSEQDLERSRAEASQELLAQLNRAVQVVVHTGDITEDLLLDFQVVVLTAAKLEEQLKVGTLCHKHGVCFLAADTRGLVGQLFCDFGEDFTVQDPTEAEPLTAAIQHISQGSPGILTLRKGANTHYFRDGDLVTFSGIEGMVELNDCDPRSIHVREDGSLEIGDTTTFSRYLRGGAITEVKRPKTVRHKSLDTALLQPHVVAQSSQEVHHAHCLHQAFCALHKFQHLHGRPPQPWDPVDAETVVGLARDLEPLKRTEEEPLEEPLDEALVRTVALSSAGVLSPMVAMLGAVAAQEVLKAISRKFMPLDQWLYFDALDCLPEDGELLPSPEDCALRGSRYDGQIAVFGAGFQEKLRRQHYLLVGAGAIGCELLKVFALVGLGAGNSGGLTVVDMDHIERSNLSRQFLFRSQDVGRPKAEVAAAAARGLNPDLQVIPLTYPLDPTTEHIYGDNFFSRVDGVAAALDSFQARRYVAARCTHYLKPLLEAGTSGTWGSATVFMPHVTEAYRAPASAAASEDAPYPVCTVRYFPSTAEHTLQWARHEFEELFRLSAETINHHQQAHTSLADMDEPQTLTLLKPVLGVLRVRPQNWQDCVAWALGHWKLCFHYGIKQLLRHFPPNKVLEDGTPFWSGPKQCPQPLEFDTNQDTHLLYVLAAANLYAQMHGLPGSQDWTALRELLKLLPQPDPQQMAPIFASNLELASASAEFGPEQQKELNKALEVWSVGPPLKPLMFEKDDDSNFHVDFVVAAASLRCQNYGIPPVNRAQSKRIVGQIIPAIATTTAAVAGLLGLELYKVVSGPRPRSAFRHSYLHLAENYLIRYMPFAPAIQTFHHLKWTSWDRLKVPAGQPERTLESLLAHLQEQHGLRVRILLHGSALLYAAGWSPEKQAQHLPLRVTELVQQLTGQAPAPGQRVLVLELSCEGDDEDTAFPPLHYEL
Experimental: (§1) E2 probes (14 μM) were mixed with E1 enzyme (3.5 μM) and diluted 10× reaction buffer (500 mM Na_2HPO_4 pH 8) or 10×Ub-ATP buffer (500 mM Na_2HPO_4 pH 8, 20 μM ubiquitin, 20 mM ATP) to a final volume of 15-50 μL. Reactions were incubated at 30° C. and 15 μL aliquots were taken at 1 and 5 h time points which were quenched with 5 μL of reducing SDS-gel loading buffer (NuPAGE LDS loading buffer (4×), 715 mM 2-mercaptoethanol). The quenched reaction solutions were boiled for 5 minute at 100° C. and then 4 μL was analysed by SDS-PAGE (NuPAGE Bis-Tris, 4-12%).

[2] = molecular target: T2, endogenous UBA1 in HEK293 protein extract (human, UniProt P22314 2-1058, limits assumed); test: probe (25 uM) in HEK293 extract (125 ug), 3 h at 30 C, western blot
T2 construct: In a cell lysate, identified by anti-UBA1 blot and molecular weight
T2 sequence (looked up): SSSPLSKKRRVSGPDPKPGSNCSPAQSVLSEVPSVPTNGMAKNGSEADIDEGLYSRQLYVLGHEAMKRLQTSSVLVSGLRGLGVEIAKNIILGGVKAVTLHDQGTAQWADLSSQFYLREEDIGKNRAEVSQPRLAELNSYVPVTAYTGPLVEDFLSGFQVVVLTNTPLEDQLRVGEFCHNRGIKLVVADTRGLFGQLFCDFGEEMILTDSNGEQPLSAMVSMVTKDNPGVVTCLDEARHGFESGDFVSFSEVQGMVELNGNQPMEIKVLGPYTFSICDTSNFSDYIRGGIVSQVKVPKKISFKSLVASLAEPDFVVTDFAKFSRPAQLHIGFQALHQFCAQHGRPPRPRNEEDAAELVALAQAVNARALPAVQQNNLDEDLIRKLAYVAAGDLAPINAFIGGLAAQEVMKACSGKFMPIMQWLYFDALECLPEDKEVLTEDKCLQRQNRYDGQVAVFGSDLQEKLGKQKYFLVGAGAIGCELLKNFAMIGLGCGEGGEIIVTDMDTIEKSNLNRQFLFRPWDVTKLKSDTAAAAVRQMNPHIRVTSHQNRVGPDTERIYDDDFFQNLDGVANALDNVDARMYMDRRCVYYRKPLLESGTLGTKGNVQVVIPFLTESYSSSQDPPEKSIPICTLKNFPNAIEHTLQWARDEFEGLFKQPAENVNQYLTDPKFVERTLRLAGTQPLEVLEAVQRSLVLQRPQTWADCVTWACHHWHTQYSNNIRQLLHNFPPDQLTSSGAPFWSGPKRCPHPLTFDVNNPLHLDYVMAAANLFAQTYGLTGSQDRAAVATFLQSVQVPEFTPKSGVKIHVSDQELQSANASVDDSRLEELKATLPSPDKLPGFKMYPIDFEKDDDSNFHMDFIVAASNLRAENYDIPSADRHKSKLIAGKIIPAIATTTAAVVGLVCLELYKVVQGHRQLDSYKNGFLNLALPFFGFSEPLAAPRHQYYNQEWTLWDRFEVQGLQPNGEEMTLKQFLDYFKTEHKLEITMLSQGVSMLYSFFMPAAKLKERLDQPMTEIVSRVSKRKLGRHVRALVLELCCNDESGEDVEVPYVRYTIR
Experimental: Labelling was quenched by the addition of 1 part 4×LDS loading buffer (Life Technologies) supplemented with 715 mM 2-mercaptoethanol (BME) to 3 parts probe-treated protein extract. Proteins were resolved by SDS-PAGE (10%) and transferred to nitrocellulose membrane (20 V for 40-60 min) by semi-dry transfer using a Novex Semi-dry device (Life Technologies). Membranes were blocked by incubation with 5% milk powder in phosphate buffered saline+0.1% Tween 20 (PBST) for 1 h. His-tagged species were probed with 1:10000 anti-His primary antibody (Clontech) in PBST+5% milk powder for 30 min at room temperature. Detection was carried out by incubation with 1:2500 anti-mouse-HRP conjugated antibody (Cell Signalling Technologies) in PBST+5% milk powder for 1 h at room temperature. ECL Prime substrate (GE Life Sciences) was used for visualization in accordance with the manufacturers protocol. Probing for UBA1 was carried out with anti-UBA1 primary antibody (Sigma E3152) and incubated for 1 h at room temperature. Detection was carried out by incubation with 1:15000 anti-mouse-HRP conjugated antibody (Cell Signalling Technologies) in PBST+5% milk powder for 1 h at room temperature.
We next tested whether E2 probes could label endogenous proteins in a complex proteome. We prepared additional thioacrylonitrile and thiomethyl acrylate probes built on UBE2D1, UBE2D2, UBE2D3 and UBE2H. […] UBE2H was chosen as it only has a single catalytic cysteine. Human embryonic kidney cell (HEK293) extracts (125 μg) were incubated with empirically determined probe concentrations (5-25 μM).

[3] = molecular target: T3, human Ub E1 activating enzyme UBA1 (recombinant, wild type) (human, UniProt P22314 1-1058); test: covalent activity-based labelling, UBA1 3.5 uM with 4 eq. of probe, 30 C, reducing SDS-PAGE
T3 construct: Catalytic cysteine C632
T3 sequence (looked up): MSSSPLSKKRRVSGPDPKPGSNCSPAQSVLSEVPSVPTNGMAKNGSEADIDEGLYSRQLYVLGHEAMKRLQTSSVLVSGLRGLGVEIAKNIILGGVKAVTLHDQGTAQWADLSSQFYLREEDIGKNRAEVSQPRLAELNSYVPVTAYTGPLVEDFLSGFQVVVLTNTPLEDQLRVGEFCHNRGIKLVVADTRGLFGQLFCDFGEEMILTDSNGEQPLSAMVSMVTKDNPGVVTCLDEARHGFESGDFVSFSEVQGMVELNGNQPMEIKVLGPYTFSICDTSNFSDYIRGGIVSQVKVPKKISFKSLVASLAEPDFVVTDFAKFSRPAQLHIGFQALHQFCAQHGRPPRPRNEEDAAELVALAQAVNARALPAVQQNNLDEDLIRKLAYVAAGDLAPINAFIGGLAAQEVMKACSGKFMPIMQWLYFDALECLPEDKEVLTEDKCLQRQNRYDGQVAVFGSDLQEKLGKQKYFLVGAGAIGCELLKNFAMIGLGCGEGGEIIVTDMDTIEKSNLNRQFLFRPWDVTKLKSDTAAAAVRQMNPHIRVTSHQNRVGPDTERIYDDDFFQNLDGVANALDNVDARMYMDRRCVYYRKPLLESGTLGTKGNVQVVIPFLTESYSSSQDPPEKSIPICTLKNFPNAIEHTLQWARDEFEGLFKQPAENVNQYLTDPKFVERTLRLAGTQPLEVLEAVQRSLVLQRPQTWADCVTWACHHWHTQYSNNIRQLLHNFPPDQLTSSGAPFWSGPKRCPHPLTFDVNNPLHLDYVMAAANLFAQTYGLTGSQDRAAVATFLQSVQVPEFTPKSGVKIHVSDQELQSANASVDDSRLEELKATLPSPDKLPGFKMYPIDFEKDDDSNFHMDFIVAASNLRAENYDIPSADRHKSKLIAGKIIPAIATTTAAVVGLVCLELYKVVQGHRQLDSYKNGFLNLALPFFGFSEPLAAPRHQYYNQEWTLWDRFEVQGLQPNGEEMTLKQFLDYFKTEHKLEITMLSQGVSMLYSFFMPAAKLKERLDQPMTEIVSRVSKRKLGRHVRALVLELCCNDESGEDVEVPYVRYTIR
Experimental: as §1

[4] = molecular target: T3, human Ub E1 activating enzyme UBA1 …; test: covalent activity-based labelling of UBA1, reducing SDS-PAGE
Experimental: as §1

[5] = molecular target: T3, human Ub E1 activating enzyme UBA1 …; test: covalent activity-based labelling, SDS-PAGE (FIG. 3B)
Experimental: as §1

B1: UBE2L6*-=CN (enzyme)
chain: MGSSHHHHHHSSGLEVLFQGPGSMMASMRVVKELEDLQKKPPPYLRNLSSDDANVLVWHALLLPDQPPYHLKAFNLRISFPPEYPFKPPMIKFTTKIYHPNVDENGQICLPIISSENWKPSTKTSQVLEALNVLVNRPNIREPLRMDLADLLTQNPELFRKNAEEFTLRFGVDRPS
modifications: catalytic cysteine labelled with TDMA 1: thioacrylonitrile warhead
- binding result [1]: binds

B2: UBE2L6**-=CN (enzyme)
chain: MGSSHHHHHHSSGLEVLFQGPGSMMASMRVVKELEDLQKKPPPYLRNLSSDDANVLVWHALLLPDQPPYHLKAFNLRISFPPEYPFKPPMIKFTTKIYHPNVDENGQICLPIIASENWKPSTKTSQVLEALNVLVNRPNIREPLRMDLADLLTQNPELFRKNAEEFTLRFGVDRPS
modifications: catalytic cysteine labelled with TDMA 1: thioacrylonitrile warhead
- binding result [1]: binds

B3: UBE2N-=CN (His-tagged UBE2N labelled with (E)-3-tosylacrylonitrile 1; thioacrylonitrile probe) (enzyme)
chain: MGSSHHHHHHSSGLEVLFQGPGSAGLPRRIIKETQRLLAEPVPGIKAEPDESNARYFHVVIAGPQDSPFEGGTFKLELFLPEEYPMAAPKVRFMTKIYHPNVDKLGRICLDILKDKWSPALQIRTVLLSIQALLSAPNPDDPLANDVAEQWKTNEAQAIETARAWTRLYAMNNI
modifications: cysteine labelled with TDMA 1: thioacrylonitrile (activated vinylsulfide) warhead
notes: E2-based activity-based probe; forms a covalent bisthioether with the catalytic cysteine of the E1; also called Ubc13-=CN
- binding result [2]: binds
- binding result [3]: binds

B4: UBE2H thioacrylonitrile probe (enzyme)
chain: MGSSHHHHHHSSGLEVLFQGPGSMSSPSPGKRRMDTDVVKLIESKHEVTILGGLNEFVVKFYGPQGTPYEGGVWKVRVDLPDKYPFKSPSIGFMNKIFHPNIDEASGTVCLDVINQTWTALYDLTNIFESFLPQLLAYPNPIDPLNGDAAAMYLHRPEEYKQKIKEYIQKYATEEALKEQEEGTGDSSSESSMSDFSEDEAQDMEL
modifications: single catalytic cysteine labelled with TDMA 1 (thioacrylonitrile)
notes: also called UBE2H-=CN
- binding result [2]: binds

Further lines, results first:

- binding result [2]: binds
B5: UBE2H thiomethyl acrylate probe (enzyme)
chain: MGSSHHHHHHSSGLEVLFQGPGSMSSPSPGKRRMDTDVVKLIESKHEVTILGGLNEFVVKFYGPQGTPYEGGVWKVRVDLPDKYPFKSPSIGFMNKIFHPNIDEASGTVCLDVINQTWTALYDLTNIFESFLPQLLAYPNPIDPLNGDAAAMYLHRPEEYKQKIKEYIQKYATEEALKEQEEGTGDSSSESSMSDFSEDEAQDMEL
modifications: single catalytic cysteine labelled with TDMA 2 (thiomethyl acrylate)
notes: also called UBE2H-VME

- binding result [4]: binds
- binding result [2]: binds
B6: UBE2N-VME (His-tagged UBE2N labelled with (E)-methyl 3-tosylacrylate 2; thiomethyl acrylate probe) (enzyme)
chain: MGSSHHHHHHSSGLEVLFQGPGSAGLPRRIIKETQRLLAEPVPGIKAEPDESNARYFHVVIAGPQDSPFEGGTFKLELFLPEEYPMAAPKVRFMTKIYHPNVDKLGRICLDILKDKWSPALQIRTVLLSIQALLSAPNPDDPLANDVAEQWKTNEAQAIETARAWTRLYAMNNI
modifications: cysteine labelled with TDMA 2: thiomethyl acrylate warhead
notes: also called Ubc13-VME

- binding result [5]: binds
B7: UBE2L3**-=CN (enzyme)
chain: MGSSHHHHHHSSGLEVLFQGPGSMAASRRLMKELEEIRKSGMKNFRNIQVDEANLLTWQGLIVPDNPPYDKGAFRIEINFPAEYPFKPPKITFKTKIYHPNIDEKGQVCLPVIAAENWKPATKTDQVIQSLIALVNDPQPEHPLRADLAEEYSKDRKKFSKNAEEFTKKYGEKRPVD
modifications: catalytic cysteine labelled with TDMA 1: thioacrylonitrile warhead
notes: also called UBE2L3** thioacrylonitrile probe
